Here are results for one molecule from patent publication US20240018228A1 (University of Texas, published 2024).

The target in test [1] is T1, human CCL21 (chemokine (C-C motif) ligand 21) (human, UniProt O00585 24-134).
T1 construct: The same entry is used for native CCL21 stained in tissue; also called hCCL21; rhCCL21
T1 sequence (looked up): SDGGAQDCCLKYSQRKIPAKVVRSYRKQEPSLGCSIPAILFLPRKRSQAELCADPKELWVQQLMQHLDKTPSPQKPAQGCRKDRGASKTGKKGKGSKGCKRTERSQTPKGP
Briefly: western blot of human CCL21 protein probed with hybridoma supernatant ('Supernatent BalbC (1:10)').

In a further test the target is T2, CCL21 pep 2.
T2 construct: One of the two peptides behind r1 of the first reading
T2 peptide: KYSQRKIPAKVVR
The experiment in a line: slot blot; each lane holds only CCL21, pep 1 or pep 2 in the amount printed, probed with the monoclonal antibody (the legend calls it a competition).

Another test has as its target T3, CCL21 pep 1.
T3 construct: One of the two peptides behind r1 of the first reading
T3 peptide: SLLILVLAFGIPR
The description is as above.

The target of a further test is T4, human chemokine CCL19 (human, UniProt Q99731 22-98).
T4 sequence (looked up): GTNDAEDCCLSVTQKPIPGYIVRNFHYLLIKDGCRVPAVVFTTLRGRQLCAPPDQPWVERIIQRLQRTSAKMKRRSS
Briefly: western blot of human CCL19 and human CCL21 probed with the monoclonal antibody.

The target in a further test is T5, mouse CCL21 (mouse, UniProt P84444 24-133).
T5 construct: also called murine CCL21
T5 sequence (looked up): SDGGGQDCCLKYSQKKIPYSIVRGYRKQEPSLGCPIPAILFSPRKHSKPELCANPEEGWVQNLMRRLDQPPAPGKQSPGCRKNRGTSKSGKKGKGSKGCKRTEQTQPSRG
Briefly: slot blot of human and mouse CCL21 protein probed with the monoclonal antibody.

B1: anti-CCL21 murine monoclonal antibody Clone #8 (C8) (antibody, V domains shown)
VH: EVQLQQSGAEIVRSGASVRLSCTASGFNIKDFYLNWVKQRPEQGLDWIGWIDPENGDTEYAPKFQGKATMTADTSSNTIYLHLSSLTSEDTAVYYCNAFDYDYWGQGTTLTVSS
VL: DIQMNQSPSSLSASLGDTVTITCHASQNINVWLSWYQQKPGNIPKLLIYKASNLHTGVPSRFSGSGSGTGFTLTISSLHPEDIATYYCHQGHSFPLTFGAGTKLELK
notes: Mouse monoclonal from immunized BALB/C mice; also called anti-CCL21 C8
On to B1, for which the binding result is given as “binds” in test [1]; “no binding (tested: 1.0 µg)” in the test with CCL21 pep 2; “binds” in the test with CCL21 pep 1; “no binding (tested: 100 ng)” with human chemokine CCL19; “no binding (tested: 1.0 µg)” in the test with mouse CCL21.
